± gives the half width of the 95% confidence interval.
Tests used:
[1] = folding stability dG unfold from chymotrypsin proteolysis; higher = more stable
In short: (§1)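 Sequencing followed digestion of designed mini-proteins with trypsin and chymotrypsin, each at 11 concentrations in threefold dilutions together with a no-protease condition. The mini-proteins were under 80 residues, had no cysteine, sat in a PA-tagged cDNA display construct, and were kept only if AlphaFold2 dimer inter-PAE was above 15. From the counts, Bayesian fitting gave K50, and unfolding free energy was derived against a sequence-predicted unfolded-state K50 and a shared folded-state K50, per protease or combined.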

[2] = folding stability dG unfold (combined trypsin and chymotrypsin); higher = more stable
In short: as §1

[3] = folding stability dG unfold from trypsin proteolysis; higher = more stable
In short: as §1

Row | Sequence | folding stability dG unfold [1] | folding stability dG unfold [2] | folding stability dG unfold [3]
1 | SAGGFKIEYTGNYYTIELPGLKIMVNPNMGMMRIKLPGNGKKITIPVPMNNWEDMLDAVKEILKELGSAGGS [r8_447_TrROS] | 2.18 ± 0.099 kcal/mol | 2.56 ± 0.26 kcal/mol | 3.17 ± 0.17 kcal/mol
2 | SAGGFKLKIDDIEFHDDYLVIRLKIEVPVNDQTMKFELTLIIPVPPPPPPKPPVDPEEYRDPDGKWHSAGGS [r8_234_TrROS] | 2.9 ± 0.062 kcal/mol | 2.63 ± 0.24 kcal/mol | 2.19 ± 0.11 kcal/mol
3 | SAGGFNRKVTVRVKVPATGEEFEFEFDFEGLTLEEIKRKIKEEIKKKGIVLKPDNPVVIEITDLEEDPASAG [r5_230_JUSTAS] | 3.86 ± 0.21 kcal/mol | 3.98 ± 0.33 kcal/mol | 4.13 ± 0.34 kcal/mol
4 | SAGGGAEELAKALAEELEKEGLIKEVEVEVRVRPDGSIEVRIKVKVEPPPPPPPVTVVRDENGEERLLSAGG [r13_957_TrROS_Hall] | 0.601 ± 0.12 kcal/mol | 1.11 ± 0.31 kcal/mol | 0.972 ± 0.097 kcal/mol
5 | SAGGGAIVRARFPRDIPELVRAYKILEAAAPDEEVTLLLPEKPVVVVRREKVGDYFLLEVRLPEDLLSAGGS [r16_404_TrMRF] | 0.546 ± 0.15 kcal/mol | 0.609 ± 0.12 kcal/mol | 0.647 ± 0.2 kcal/mol
6 | SAGGGALSPEEALGKPVTALVEVGGKPYLATYTLKPTPDGWLLEVTVYDPSTGTPTTRTLDWDDVEFESAGG [r13_289_TrMRF] | 2.232 ± 0.022 kcal/mol | 1.87 ± 0.04 kcal/mol | 1.09 ± 0.025 kcal/mol
7 | SAGGGAMHTVTITDEAGNVTTFTLPTDLDTLKEKIKELFPEKKYEIKKVTRVPGNPGLTTITVKVPKDSAGG [r13_832_JUSTAS] | 1.89 ± 0.064 kcal/mol | 1.68 ± 0.11 kcal/mol | 1.28 ± 0.039 kcal/mol
8 | SAGGGASLNSIKISKIPGLNKYKITLPTSAAPGTEVTITINNPKGKETLTFTLPVKPLPGNTVVLLLSAGGS [r8_195_JUSTAS] | 1.74 ± 0.059 kcal/mol | 1.74 ± 0.066 kcal/mol | 1.46 ± 0.045 kcal/mol
9 | SAGGGEYKVEVVTFPDGSKVVLVTLPNGDKVALPVPVTRTVPVLDKTGPLKKPGPVEVAALVLVSSNGSAGG [r13_236_TrMRF] | 1.17 ± 0.12 kcal/mol | 0.956 ± 0.076 kcal/mol | 0.636 ± 0.035 kcal/mol
10 | SAGGGFDLEFVTPDGRRIRVEVKRILSYDPEKGYLVMEVKVTIYHPDKPIEIDGIIVFPPGFPPGAGGSAGG [r13_823_TrMRF] | 4 ± 0.17 kcal/mol | 3.85 ± 0.12 kcal/mol | 3.6 ± 0.13 kcal/mol
11 | SAGGGGSTTQPQQVELPGDRTATVTLHTHGDTPTATITLSEKESELGTVTVPVASTAEVAAAVAALASAGGS [r16_55_JUSTAS] | 0.683 ± 0.029 kcal/mol | 0.973 ± 0.097 kcal/mol | 1.26 ± 0.028 kcal/mol
12 | SAGGGIVEKIKKIIKEAGYKAKVEESEDGIHIVVEAPIEAGKVLEKKIKEATGKEIKIEYVPPGKGASAGGS [r16_514_TrMRF] | 3.54 ± 0.25 kcal/mol | 3.25 ± 0.16 kcal/mol | 2.21 ± 0.19 kcal/mol
13 | SAGGGKKNKIVAVDEEGNEIVFDIDADIDTVFEAIKKLFPNKEIEVDEVIEFEGYPDYVVVFVKIPKKSAGG [r13_832_TrMRF] | 2.59 ± 0.069 kcal/mol | 2.22 ± 0.22 kcal/mol | 1.72 ± 0.14 kcal/mol
14 | SAGGGKPVNILIKKPNEIKIIPIPVVKIEPLESPDKLYIIFEDGYIMEFDPKTLELLSIEKVKPIEEASAGG [r13_636_TrMRF] | 1.94 ± 0.066 kcal/mol | 1.69 ± 0.3 kcal/mol | 1.35 ± 0.11 kcal/mol
15 | SAGGGKTVVTTTPDGRTVVAAELPDGSVVAVATFPDAPVLATYNPETKTVTVAFFKGGKLVATASDSSSAGG [r13_748_TrMRF] | 0.855 ± 0.11 kcal/mol | 0.837 ± 0.13 kcal/mol | 0.698 ± 0.062 kcal/mol
16 | SAGGGLIRDAIENNPELRELLKEGYVLYVTYPDGKSGVIEINNASASEIDDAIRAHFPGEVELEFGSSAGGS [r16_655_TrMRF] | 0.389 ± 0.048 kcal/mol | 0.752 ± 0.046 kcal/mol | 1.04 ± 0.028 kcal/mol
17 | SAGGGMAPDTPVTVRIEITLPDGTRRVLDIPGRAGDPALLEAIAAELREEGYEVREIRPVEGRIVVASAGGS [r8_497_JUSTAS] | 2.81 ± 0.08 kcal/mol | 2.53 ± 0.081 kcal/mol | 1.96 ± 0.028 kcal/mol
18 | SAGGGMEPKPVEVTLTIPKGTVTPEDKVPVSTIAKLLGIPEDTEVTVEKITPVPNSDTELVTLTIVTSAGGS [r16_165_JUSTAS] | 0.571 ± 0.074 kcal/mol | 0.615 ± 0.12 kcal/mol | 0.412 ± 0.023 kcal/mol

From the supplement of paper PMC12764529
